Series [1] concerns the target T1, STK19 (31-254) (human, UniProt P49842 31-254). The series can be described thus: EMSA; n = 2; 20 mM HEPES pH 7.4, 100 mM NaCl, 1 mM MgCl2, 1 mg/ml BSA, 2 mM DTT, 5% glycerol; 30 min on ice; native 5% PAGE in 1X TBE. Particulars: protein: recombinant; tags: GST cleaved; GPLGS left at N-terminus; label: 5' IRDye 700 on rU30; blunt.
The target of series [2] is T1, STK19 (31-254). Description: EMSA; n = 4; 20 mM HEPES pH 7.4, 100 mM NaCl, 1 mM MgCl2, 1 mg/ml BSA, 2 mM DTT, 5% glycerol; 30 min on ice; native 5% PAGE in 1X TBE. Particulars: protein: recombinant, tags: GST cleaved, GPLGS left at N-terminus. (In general: Mobility shift assays separate free from complexed probe on a gel.)

T1 sequence (P49842 31-254): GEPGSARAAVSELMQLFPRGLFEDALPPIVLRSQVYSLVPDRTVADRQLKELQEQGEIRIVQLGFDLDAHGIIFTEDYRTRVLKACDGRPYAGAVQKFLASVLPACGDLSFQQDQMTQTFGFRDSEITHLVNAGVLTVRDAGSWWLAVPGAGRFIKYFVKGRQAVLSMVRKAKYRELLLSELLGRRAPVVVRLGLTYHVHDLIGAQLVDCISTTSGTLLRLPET

B1: dsRNA 30-mer (rU-rA)30 (dsRNA)
RNA 1: UUUUUUUUUUUUUUUUUUUUUUUUUUUUUU
RNA 2: AAAAAAAAAAAAAAAAAAAAAAAAAAAAAA
A word on the Kd: it is the constant that tells how readily two partners part at equilibrium. On to B1, for which the Kd with STK19 (31-254) [1] amounted to 3.2 µM.
On to TTTTTTTTTTTTTTTTTTTTTTTTTTTTTT (ssDNA) [ssDNA dT30], for which, in the series with STK19 (31-254) [2] (label: 5' IRDye 700), the Kd worked out at 14.1 µM.

B2: dsDNA 30-mer (dT-dA)30 (dsDNA)
DNA 1: TTTTTTTTTTTTTTTTTTTTTTTTTTTTTT
DNA 2: B1 RNA 2
Consider B2, for which the Kd with STK19 (31-254) [2] (label: 5' IRDye 700 on dT30, blunt) was 2.2 µM.

Source of the values: article PMC11189558, “Mutations found in cancer patients compromise DNA binding of the winged helix protein STK19”.
